US20240294618A1 (CENTIVAX, published 2024)
“And” between values parts separate entries of the source, which are not always exact repeats. Equal entries are not always repeated. Where two headings read alike, the source gives them in different places.

Experiments:
[1] = molecular target: T1, long-neurotoxin-cobra (naja) (alpha-neurotoxin), recombinant, Cobra-Avi-His (cape cobra (Naja nivea), UniProt P01390 1-71)
T1 sequence: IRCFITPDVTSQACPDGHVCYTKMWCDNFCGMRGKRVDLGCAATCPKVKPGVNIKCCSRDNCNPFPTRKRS

[2] = molecular target: T2, long-neurotoxin-taipan, recombinant, Taipan-Avi-His (coastal taipan (Oxyuranus scutatellus), UniProt A8HDK9 22-92)
T2 sequence: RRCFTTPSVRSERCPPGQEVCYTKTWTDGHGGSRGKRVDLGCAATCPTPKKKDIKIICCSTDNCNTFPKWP

[3] = molecular target: T3, long-neurotoxin-mamba (dendroapsis) (alpha-elapitoxin-dpp2d), recombinant, Mamba-Avi-His (black mamba (Dendroaspis polylepsis), UniProt C0HJD7 1-72)
T3 sequence: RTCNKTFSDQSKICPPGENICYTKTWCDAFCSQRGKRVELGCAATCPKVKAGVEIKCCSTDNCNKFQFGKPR

[4] = molecular target: T2, long-neurotoxin-taipan, recombinant, …; assay: off-rate kinetics; platform not named
[5] = molecular target: T3, long-neurotoxin-mamba (dendroapsis) …; assay: off-rate kinetics; platform not named
[6] = molecular target: T2, long-neurotoxin-taipan, recombinant, …; remark: listed apart in the source
[7] = molecular target: T4, long-neurotoxin-krait (bungarus) (alpha-bungarotoxin) (krait (Bungarus caeruleus), UniProt D2N116 3-76); assay: off-rate kinetics; platform not named
T4 construct: also called Krait LNX; long-neurotoxin from Krait
T4 sequence: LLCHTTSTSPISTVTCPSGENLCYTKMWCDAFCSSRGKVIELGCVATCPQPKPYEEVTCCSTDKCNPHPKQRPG

B1: SNEURO_P01_B11 (antibody, V domains shown)
VH: QVQLQESGGGLVQPGGSLRLSCAASGFTFSNFDMHWVRQSPGKGLEWVSGLDHSGGAHYAGSVKGRFTISREDAKNSLDLQMNNLRVDDTAVYFCVRGTLYHYTSGSYYSDAFDIWGQGTLVTVSS
VL: DIVMTQSPSSLSASVGDRVTITCRASQGISDNLNWYQQKPGKAPKLLIYAASTLQSGVPSRLSGSGSGTDFTLTISSLQPEDFATYYCQQANSFPLTFGGGTKVEIKR
Question: Which results are given for B1?
Answer: Kd [1]: 0.41 nM; koff [1]: 9e-05 s⁻¹; kon [1]: 220000 M⁻¹ s⁻¹; Kd [2]: 35 nM; koff [2]: 0.0052 s⁻¹; kon [2]: 150000 M⁻¹ s⁻¹; Kd [3]: 2.1 nM; koff [3]: 0.00038 s⁻¹; kon [3]: 180000 M⁻¹ s⁻¹

B2: SNEURO_P01_D09 FW germlined (antibody, V domains shown)
VH: EVQLVESGGGLVQPGGSLRLSCAASGFTFSNFDMHWVRQATGKGLEWVSGLDHSGGAHYAGSVKGRFTISRENAKNSLYLQMNSLRAGDTAVYYCVRGTLYHYTSGSYYSDAFDIWGQGTLVTVSS
VL: DIQMTQSPSSLSASVGDRVTITCQASQDISNYLNWYQQKPGKAPKLLIYAASSLESGVPSRFSGSGSGTDFTLTISSLQPEDFATYYCQQANSFPYTFGQGTKVEIK
Question: Which koff [4] does the source give for B2 here?
Answer: Its koff is 0.000366 s⁻¹.

Question: And the koff [5]?
Answer: Its koff is 0.000304 s⁻¹.

B3: SNEURO_P01_D09 (antibody, V domains shown)
VH: EVQLVESGGGFVQPGGSLRLSCAASGFTFSNFDMHWVRQSPGKGLEWVSGLDHSGGAHYAGSVKGRFTISREDAKNSLDLQMNNLRVDDTAVYFCVRGTLYHYTSGSYYSDAFDIWGQGTLVTVSS
VL: EIVLTQSPSSLSASVGDRVTITCQASQDISNYLNWYQQKPGKAPKLLIYAASSLESGVPSRFSGSGSGTDFTLTISSQQPEDFATYYCQQANSFPYTFGQGTKVEIKR
Question: Which results are given for B3?
Answer: Kd [6]: 0.49 nM and 0.96 nM; Kd [2]: 1.5 nM

B4: SNEURO_P01_D09 VK germlined (antibody, V domains shown)
VH: EVQLVESGGGFVQPGGSLRLSCAASGFTFSNFDMHWVRQSPGKGLEWVSGLDHSGGAHYAGSVKGRFTISREDAKNSLDLQMNNLRVDDTAVYFCVRGTLYHYTSGSYYSDAFDIWGQGTLVTVSS
VL: DIQMTQSPSSLSASVGDRVTITCQASQDISNYLNWYQQKPGKAPKLLIYAASSLESGVPSRFSGSGSGTDFTLTISSLQPEDFATYYCQQANSFPYTFGQGTKVEIK
Question: B4 was tested. Which koff [4] did it give?
Answer: The koff was 0.000392 s⁻¹.

Question: And the koff [7]?
Answer: Its koff is 5.59e-05 s⁻¹.

Question: What about the koff [5] of the same binder?
Answer: Its koff is 6.95e-05 s⁻¹.

B5: SNEURO_P01_D09 VK L3 NS->QS (antibody, V domains shown)
VH: EVQLVESGGGFVQPGGSLRLSCAASGFTFSNFDMHWVRQSPGKGLEWVSGLDHSGGAHYAGSVKGRFTISREDAKNSLDLQMNNLRVDDTAVYFCVRGTLYHYTSGSYYSDAFDIWGQGTLVTVSS
VL: EIVLTQSPSSLSASVGDRVTITCQASQDISNYLNWYQQKPGKAPKLLIYAASSLESGVPSRFSGSGSGTDFTLTISSQQPEDFATYYCQQAQSFPYTFGQGTKVEIKR
Question: For B5, which koff [4] is on record?
Answer: Its koff is 0.000304 s⁻¹.

B6: SNEURO_P01_D09 VK L3 NS->NT (antibody, V domains shown)
VH: EVQLVESGGGFVQPGGSLRLSCAASGFTFSNFDMHWVRQSPGKGLEWVSGLDHSGGAHYAGSVKGRFTISREDAKNSLDLQMNNLRVDDTAVYFCVRGTLYHYTSGSYYSDAFDIWGQGTLVTVSS
VL: EIVLTQSPSSLSASVGDRVTITCQASQDISNYLNWYQQKPGKAPKLLIYAASSLESGVPSRFSGSGSGTDFTLTISSQQPEDFATYYCQQANTFPYTFGQGTKVEIKR
Question: For B6, which koff [4] is on record?
Answer: The koff was 0.000769 s⁻¹.

B7: SNEURO_P01_D09 VH germlined (antibody, V domains shown)
VH: EVQLVESGGGLVQPGGSLRLSCAASGFTFSNFDMHWVRQATGKGLEWVSGLDHSGGAHYAGSVKGRFTISRENAKNSLYLQMNSLRAGDTAVYYCVRGTLYHYTSGSYYSDAFDIWGQGTLVTVSS
VL: EIVLTQSPSSLSASVGDRVTITCQASQDISNYLNWYQQKPGKAPKLLIYAASSLESGVPSRFSGSGSGTDFTLTISSQQPEDFATYYCQQANSFPYTFGQGTKVEIK
Question: What does the source list for B7?
Answer: koff [4]: 0.000488 s⁻¹; koff [5]: 8.54e-05 s⁻¹
